Results taken from the supplement of paper PMC10724198.
± gives the standard deviation of the averaged measurements.

Tested on: Saccharomyces cerevisiae
Test: protein stability index of tFT-peptide fusion (C-terminal peptide) (PSI (0-1 scale)); higher = more stable (slower turnover)
Details: genetic background: wild type; temperature: 30 C
Method: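 Multiplexed protein stability (MPS) profiling in S. cerevisiae. Random 12-aa peptides (tFT-X12 library) are fused to the C-terminus of a sfGFP-mCherry tandem fluorescent timer, after mCherry and a GGGS linker. Cells are FACS-sorted into 8 mCherry/sfGFP bins and deep-sequenced. The protein stability index (PSI) is the read-weighted bin average, scaled from 0 (unstable) to 1 (stable). Only peptides with >10 reads are reported; cells were grown at 30 °C in SC-His with glucose.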
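Further: PSI is a weighted mean of sequencing reads over stability bins, variants kept only with over 10 reads, mCherry proximal and sfGFP distal, peptide attached via GGGS linker.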

Sequence | protein stability index
GASSPVEVGAAG | 0.695 ± 0.022
GASVSCQWFCGA | 0.694 ± 0.015
GATLWGMAWGAR | 0.682 ± 0.012
GAVGSPVEFGGR | 0.688 ± 0.063
GAVQGVALRGGS | 0.744 ± 0.1
GAVRWGGAGVGV | 0.73 ± 0.063
GAWWVHGRRVGR | 0.738 ± 0.046
GAYKVPSYGINY | 0.695 ± 0.021
GCAFVVLLSRGF | 0.604 ± 0.083
GCCAPWTFDDDL | 0.7117 ± 0.0065
GCFYYWSVNVSY | 0.5599 ± 0.0036
GCGAGEVWGVGG | 0.674 ± 0.014
GCGGRARAGAGG | 0.697 ± 0.089
GCGGSREAVVNG | 0.662 ± 0.042
GCGLVGGRWFRW | 0.67 ± 0.034
GCIGGMAPWGGL | 0.664 ± 0.0097
GCIPFELLECGF | 0.663 ± 0.071
GCLGVRMFRVGG | 0.59 ± 0.015
GCMVFTGGKRVL | 0.672 ± 0.03
GCPIYSIIQIHR | 0.66818 ± 0.00019
GCRGVVVDGCGW | 0.593 ± 0.0073
GCRGVWGWVGRG | 0.74 ± 0.084
GCSFVLCRGSNA | 0.675 ± 0.034
GCSNESVGVISG | 0.644 ± 0.024
GCVGGGDWRFNV | 0.566 ± 0.027

Sequence | protein stability index
GCVHDLGVISCQ | 0.639 ± 0.011
GCVVSGCGAGVV | 0.5755 ± 0.0057
GCWAFGWLLQYS | 0.574 ± 0.014
GDERGAGRVGGS | 0.626 ± 0.0064
GDGVIVEVEGVN | 0.675 ± 0.071
GDLKWVGLGVQR | 0.687 ± 0.03
GDMVRVSYRGRR | 0.674 ± 0.053
GDPVKCSNSKDK | 0.685 ± 0.012
GDSPLQAPPSLL | 0.708 ± 0.1
GDVGGLFYVSLL | 0.7569 ± 0.0027
GDVSYRWLRACT | 0.6576 ± 0.00085
GDWQGRADGAVI | 0.671 ± 0.071
GEAGGEESEEGY | 0.676 ± 0.042
GECAELSSVGGG | 0.664 ± 0.035
GEGGENRRNGTV | 0.7 ± 0.12
GEGHVRCCFSLR | 0.699 ± 0.013
GEGRGDGEEGTG | 0.679 ± 0.035
GEISLSGRYRAV | 0.691 ± 0.032
GEKDGAVGRGEV | 0.614 ± 0.02
GERAGGPGRGRE | 0.683 ± 0.069
GERGAYVVGVRW | 0.782 ± 0.019
GEVGRGGEWGLD | 0.711 ± 0.077
GEVSSIVHIGPK | 0.684 ± 0.03
GEWCGGVAVFWR | 0.693 ± 0.028
GEWIDVSGCRRG | 0.805 ± 0.28

Sequence | protein stability index
GEYRECVSWAGG | 0.721 ± 0.07
GFALSFCFCFPL | 0.558 ± 0.029
GFDVGKRGRFGL | 0.635 ± 0.09
GFFFALGPPFSG | 0.695 ± 0.019
GFGFWRNLFYWS | 0.657 ± 0.048
GFKIEVIQASGS | 0.683 ± 0.025
GFPASVCGCMLW | 0.651 ± 0.047
GFRCTVWGRAVI | 0.637 ± 0.052
GFSDCGLYRVSC | 0.713 ± 0.0097
GFSRLTPDQRQK | 0.7373 ± 0.0063
GFTGWGRRGLGG | 0.716 ± 0.076
GFTQLQNERVDG | 0.785 ± 0.1
GFVVGVGIVSWG | 0.6108 ± 0.0029
GFWWGCGGFCFC | 0.685 ± 0.023
GFYAWAISYLWQ | 0.509 ± 0.0086
GGAGHGAGAVWG | 0.71 ± 0.037
GGALNGVGNGEL | 0.67 ± 0.053
GGARGLLRGLLG | 0.755 ± 0.085
GGCDVCGVQWIG | 0.73 ± 0.054
GGCGAKWLSGGG | 0.64 ± 0.025
GGCSGGNGGCDG | 0.678 ± 0.028
GGDDKREPGGAR | 0.6603 ± 0.0025
GGDFYEGVKNGK | 0.714 ± 0.11
GGELVKGWGSRV | 0.678 ± 0.072
GGETGGRWHKKQ | 0.672 ± 0.069

Sequence | protein stability index
GGEWGDRRKSGV | 0.647 ± 0.059
GGFCRLRYLVCP | 0.544 ± 0.039
GGFTAPLVLSPR | 0.686 ± 0.071
GGGAADGGGGRG | 0.646 ± 0.059
GGGAGERMRDGR | 0.67 ± 0.026
GGGARSPSGCAN | 0.712 ± 0.019
GGGERFGLGGRM | 0.659 ± 0.049
GGGFVGGTVAAV | 0.725 ± 0.011
GGGGAAGWGAVG | 0.688 ± 0.015
GGGGALGRVWPG | 0.685 ± 0.02
GGGGAVRAWGLR | 0.736 ± 0.019
GGGGEAWGGLRW | 0.775 ± 0.055
GGGGERGGVKRG | 0.663 ± 0.02
GGGGGASMSGTP | 0.687 ± 0.017
GGGGGCGVAGGV | 0.71 ± 0.026
GGGGGFAPGVTG | 0.698 ± 0.046
GGGGGFGVVRVG | 0.651 ± 0.032
GGGGGGFRVVVG | 0.705 ± 0.03
GGGGGGGEWVGG | 0.656 ± 0.05
GGGGGGGGGGGG | 0.65 ± 0.04
GGGGGGGGRRPG | 0.616 ± 0.0097
GGGGGGGGSSCA | 0.685 ± 0.067
GGGGGGGGVVVR | 0.686 ± 0.016
GGGGGGLVGQGD | 0.673 ± 0.017
GGGGGGWGGGVG | 0.665 ± 0.021

Sequence | protein stability index
GGGGGNAGSHLG | 0.673 ± 0.018
GGGGGRGGVVVR | 0.682 ± 0.014
GGGGGRSSPGGS | 0.678 ± 0.073
GGGGGWGGAGGV | 0.737 ± 0.048
GGGGLKVVGGGS | 0.661 ± 0.032
GGGGVGSSGARV | 0.644 ± 0.068
GGGGVGTGCQRR | 0.668 ± 0.037
GGGGVLGVVRVG | 0.62 ± 0.033
GGGGVWVSWCGW | 0.679 ± 0.013
GGGHGGVGGGMG | 0.612 ± 0.057
GGGLSRVEGFGP | 0.6681 ± 0.0038
GGGLVGVEGGWG | 0.6732 ± 0.0057
GGGPGGWGGRGR | 0.6449 ± 0.0052
GGGPGRCAGGGR | 0.669 ± 0.024
GGGRGEVEGHSG | 0.709 ± 0.013
GGGRSASGGWGC | 0.698 ± 0.024
GGGSGGREPGGS | 0.726 ± 0.027
GGGSGKSGNLYS | 0.687 ± 0.06
GGGVGGGGVEYG | 0.638 ± 0.067
GGGVGGGRAWWR | 0.699 ± 0.037
GGGVGGWGTWVV | 0.715 ± 0.1
GGGVGRGGVEYG | 0.609 ± 0.01
GGGVPGGLGREG | 0.677 ± 0.043
GGGVTRMQQRNG | 0.6774 ± 0.002
GGGVWGGVFFRL | 0.647 ± 0.014

Sequence | protein stability index
GGGVWWGGWGHW | 0.73 ± 0.061
GGGWGERGRGGS | 0.729 ± 0.037
GGIGYRRQAAQA | 0.673 ± 0.068
GGKEEGAGRRGV | 0.69 ± 0.059
GGKREGEACRQE | 0.662 ± 0.13
GGLSELGSGIKC | 0.673 ± 0.0083
GGLVPPLEGLVR | 0.677 ± 0.037
GGLWPWGRVVCW | 0.687 ± 0.078
GGMWGVGRGSVG | 0.657 ± 0.068
GGPSLLEGGAWA | 0.6436 ± 0.0023
GGREWWLSDGTV | 0.75 ± 0.033
GGRGGGGEMGGR | 0.651 ± 0.04
GGRGRGGEMGGR | 0.722 ± 0.033
GGRGVEVAGKGW | 0.686 ± 0.08
GGRGWVGEMGGR | 0.784 ± 0.053
GGRIITIWNRKM | 0.578 ± 0.069
GGRRHQRARLPL | 0.605 ± 0.018
GGRRRPVPQGPR | 0.649 ± 0.091
GGSGGLGEQGHR | 0.76 ± 0.051
GGSGHGAGAVWG | 0.6979 ± 0.0057
GGSGVHRHRPFG | 0.666 ± 0.055
